This note sets out measurements from patent publication US20250289897A1, “LEPTIN RECEPTOR AGONISTIC ANTIBODY AS MONO OR COMBO THERAPIES TO TREAT OBESITY” (ELI LILLY AND COMPANY, priority 2024, published 2025).

Marks after values point to notes of the source that are not given here.

The assay deals with T1, mutant LEPR-A409E (Homo sapiens, UniProt P48357, A409E).
T1 construct: expressed in transfected cells; host or cells: HEK293
T1 sequence (P48357 22-1165 A409E): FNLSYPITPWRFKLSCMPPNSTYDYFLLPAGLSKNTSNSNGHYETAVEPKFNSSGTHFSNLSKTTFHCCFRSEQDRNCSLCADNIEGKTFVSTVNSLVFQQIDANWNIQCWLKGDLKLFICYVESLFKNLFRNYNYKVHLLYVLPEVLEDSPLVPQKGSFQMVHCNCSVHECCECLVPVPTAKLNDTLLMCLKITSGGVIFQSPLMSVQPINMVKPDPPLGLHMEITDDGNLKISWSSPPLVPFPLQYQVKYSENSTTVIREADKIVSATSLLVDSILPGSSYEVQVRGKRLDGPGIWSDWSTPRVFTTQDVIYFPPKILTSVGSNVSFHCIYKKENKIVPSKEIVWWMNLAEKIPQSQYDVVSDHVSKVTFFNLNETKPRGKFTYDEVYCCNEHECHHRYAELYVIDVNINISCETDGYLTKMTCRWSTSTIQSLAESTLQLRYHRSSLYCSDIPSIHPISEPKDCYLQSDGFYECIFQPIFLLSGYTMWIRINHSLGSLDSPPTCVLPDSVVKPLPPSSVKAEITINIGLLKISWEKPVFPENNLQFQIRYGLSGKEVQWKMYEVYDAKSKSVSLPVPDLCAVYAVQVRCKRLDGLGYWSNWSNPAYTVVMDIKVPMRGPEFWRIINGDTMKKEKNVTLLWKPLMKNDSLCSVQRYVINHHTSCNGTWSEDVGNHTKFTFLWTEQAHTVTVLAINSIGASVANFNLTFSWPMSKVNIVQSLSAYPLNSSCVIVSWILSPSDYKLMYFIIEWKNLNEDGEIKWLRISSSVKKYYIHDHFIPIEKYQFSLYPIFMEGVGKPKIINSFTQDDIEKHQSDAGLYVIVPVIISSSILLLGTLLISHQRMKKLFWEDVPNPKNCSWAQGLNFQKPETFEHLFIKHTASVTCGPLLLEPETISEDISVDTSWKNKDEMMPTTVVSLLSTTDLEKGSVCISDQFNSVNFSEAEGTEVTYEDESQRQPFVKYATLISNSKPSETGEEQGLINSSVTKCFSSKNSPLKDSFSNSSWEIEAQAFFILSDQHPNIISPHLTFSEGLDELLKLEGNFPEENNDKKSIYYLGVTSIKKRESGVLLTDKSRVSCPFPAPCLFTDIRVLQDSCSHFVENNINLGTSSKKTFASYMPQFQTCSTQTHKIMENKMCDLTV
In words: STAT3-Luciferase reporter assay in HEK293 cells that express hLEPR-A409E. The class given is cell-based. The method, then: Missense mutation A409E in LEPR gene was associated with autosomal recessive early onset of obesity in human (Farooqi et al., 2007, N Engl J Med 356 (3): 237-247). […] To test whether the anti-LEPR antibodies can activate these mutant human LEPR receptors, the STAT3-Luciferase reporter assay was established using HEK293 cells that express hLEPR-A409E. These cells were cultured in growth medium DMEM/F12 (Gibco, #12430-054), 10% fetal bovine serum (FBS, Gibco, #10082-147), antibiotics (Gibco, #15240-062), Sodium Pyruvate (Gibco, #11360-070) and GlutaMax supplement (Gibco, #35050-061) in the presence of drug selection 250 μg/mL of Hygromycin (Invitrogen, #10687010) and 800 μg/mL of Geneticin (Corning, #30-234-C1).
Before plating the cells for luciferase assays, the poly-D-Lysine coated 96-well plates (Corning Inc, Bio Coat, #354651, Poly-D-Lysing coated) were rinsed once with phosphate buffered solution (PBS) and once by plating medium. Then, 20,000 to 24,000 STAT3-Luciferase reporter cells were seeded onto the poly-D-lysine 96-well plates in 100 μL/well plating medium consist of DMEM/F12 (3:1, Gibco, #93-0152DK), 10% fetal bovine serum (FBS, Gibco, #10082-147), 1x GlutaMax supplement (Gibco, #35050061) 20 mM HEPES (Gibco, #15630-080) and antibiotics (Gibco, 15240-062). After overnight culture at 37°° C. with 5% CO2, the culture medium was changed to 75 μL assay medium containing OPTI-MEM (Gibco, #31985-070) with 1% BSA (BSA Fraction V (7.5%), Gibco, #15260-037), 0.1% dialyzed fetal bovine serum (FBS, Gibco, #26400-044) for 1 hour at 37° C. with 5% CO2. Test articles were diluted into 25 μL assay medium and were added to each well. Cells were further incubated for 20 hours at 37° C. with 5% CO2. Cell lysing and One-Glo luciferase substrate solution (Promega, #E6120) were then added to each well, and relative luciferase units (RLUs) were measured on a ClarioStar plate reader. The concentration response curves were then plotted as raw RLU readings to the function of log drug concentrations. EC50 was calculated using GraphPad Prism software.
(Reporter assays use an easily measured gene product as a stand-in for the process of interest.)

“human leptin: recombinant human leptin protein (SEQ ID NO:27), positive control”: under “LEPR-A409E STAT3-luciferase”, the “Bottom (RLU)” value came to 451.8 RLU and the “Hill Slope” value stood at 0.2011. Moreover, where the note is “LEPR-A409E, top of curve projected by GraphPad Prism software”, the “Top (RLU)” value was 259289* RLU. The “activation of LEPR-A409E” value (STAT3-luciferase) is given as “did not activate”.
